The text below walks through data of the DeepSol protein solubility set.

A short description of the data set: soluble on expression in E. coli; label from the status in PepcDB or PDB records.
Consider “MSKRQSSLMSFFTKTPKSEKPEEEVKEKSVEEPKSLKNDTPKISNDSEKKVLKRSNSKTVSSPVKTPRNASKRPKVVVCSSSEGEDDDGDEDFEMKEAEEHESSDESEADENASDCEVVESPESTPQSTPKRGGKKKISKPLLAENTPKSVKMAGKSKKVIPDGEAVSMAGVLDKMDKIMDGEGERKRIVEKTTGAKNKAVELEPAERFDHESFDFLKPDKIRDGFKRPMSDPEYDPKTLWVPPDFHQKQTPGHRQWWTMKSQHFDTILLFKVGKFYETYHMDAVEVVRALNIAFMRGSYAHAGFPEHAASKFADQLMNHGYKVARIEQTETPQMLEERNQKTKTKEKVVRREVCRVTSNGTRTYGVLDGVDLGSASSTLDPTAKHLLAIKEFHNPETGKSSYGVCMIDTTTAHIRIGQFEDDDYRSQLRTLLANVIVVQAIVERGSISSTTKSIINGILFSVPVEHLLPKKQFMTAEDVVRIVSNEDYYGSDASEWPEVLKGMLEDSSILPKPSTDWQLALSAFGAIFWYLRDSLIDVDMLSMRNVTIYNSNSMENDQKKEKIDWNGKNLILDGTALENLNIVPNGRDSHLTSLYYVINKCSTPFGRRLLRSWLLQPTCDPKKLEQRQKAIKWLVSPDASSFMTTATATLKKIPDLDRLLQKIHTIGLKYRSEKHPDSRAIFFDTIKTNQKKIAELLAAIDGFKLCNKLRKEYIKVQKEGEGCELLDELLGNEQEMEEVDENIYFFEKMFDRSTAMKDGKIVPNAGCDEEYDEALNRVKEALNELNDYKDSVAKKYSCSIKFVDSGKVKYLLEMPENTKVSSSFELKSRRKGFIRYSTPDSEQLVAALDAVEKEKSKLGDDATRRVFEQFGHKNPIWLETVKLVSSFDVLTSLALFAKSSPFEMCMPEFDFNATDPYLIVDKGVHPCLALQSRNEVTQTTSFIANSTTMGASEAAVMLLTGPNMGGKSTLMRQTAVLAILAHIGSMVPAFSMRLTPIDRIFTRIGANDRIMCGESTFFIELKETDIMLKNATKHSLLLVDELGRGTSTFDGTAIASAVLQKISDDLACRTFFSTHYHSICDSFTNHPNVRLAHMKCVVDKENNEDPTMEDVTFLYELESGICPKSYGFYAAKLAGIDHQVVRNAYLESNKFASNLIIDPKIRHLVECARDDNFDVGELKRMIEAI”, for which the “soluble on expression in E. coli” value is “not soluble”.

“MSLRFGNRKLRQQQALQYELEKNKAELEEYREELVSHFARSAELLDTMAHDYRQLYQHMAKSSSSLLPEMSAESNPFRNRLAESEASNDQAPVQMPRDYSEGASGLLRSGAKRDEGHHHHHH”: the “soluble on expression in E. coli” value is recorded as “not soluble”.

Turning to “MISNRILQTTVDGLKAISRVDLCIVDADKNVAAKTFDNVSECLADAISFIDSPAESQAVNGFQFFKVEDEGNLEYIIMARGTSDDVYMVGKLAAFQIQNLLVAYKERFDKDNFIKNLLLDNLLRVDMYTRAEKLHIETDVKRVVYIIETKHEKDTSALETVRTLFANKTRDFITAVDEKSIILVKEVKGNESYDELDKTADVIIDMLNTEAMSAAHVAYGTIVNDIREVSRSYKEAKMALDVGKIFYSNKNVVAYNRLGIGRLIYQLPIPLCQMFIKEIFEGKAPDDFDDETLSTINKFFENSLNVSETSRQLYIHRNTLVYRLDKIQKITGLDLRVFDDAITFKIALMVVKYMKYMESKDTF”, the “soluble on expression in E. coli” value is on record as “not soluble”.

With “MVVISVIAIVLLLVYLDDKLGQFIFRNGRKTVVYPERRSDISLYINGRHLFSDYFAELGRARDHIHVLFYIIKNDETSAPFFQILKEKAAAGVKVRVLTDWVGSFGLPKALIRSLEESGVEFAYARKPRFPFFIYRLNRRNHRKITVIDGRVGYIGGFNIGREYNGKDANFGEWRDYHLKVNGEGVHDLQEQFLHDWEEATGRTVPDKHRYFPPLPAGAIRHQLVATNGAALEEQFIEVIRQAKKEIMIGSPYFIPSRPLFNELMQALRRGVRVTVLVPLKADHLFVKEAAYPYFYRLLKAGARIYRFYQGFYHAKTLVIDEEWCDVGTANFDRRSLFLNGEINCYVFDRGFTRLVKRAIERDLLRRRAADGRLLAKTFAS”, the “soluble on expression in E. coli” value is “not soluble”.

Turning to “MEEIIKPVSKELLKAELTEDRRLRMTNKSNNQIYIITHQNAPNVMREIGRLREIAFRAAGGGTGLSMDIDEYDTMEHPYKQLIVWNPEAEEILGGYRYLLGTDVRFDEAGAPILATSHMFHFSDAFIKEYLPQTIELGRSFVTLEYQSTRAGSKGLFALDNLWDGLGALTVVMPNVKYFFGKVTMYPSYHRRGRDMILYFLKKHFNDREELVTPMEPLILETSDEELRTLFCKDTFKEDYKILNTEIRKLGYNIPPLVNAYMSLSPTMRMFGTAINYEFGDVEETGILIAVDEILEDKRIRHIQTFIESHPDALKMPCESEGVFTPKVVTPQEGCCH”, the “soluble on expression in E. coli” value was “not soluble”.

Take “MATSMTDIKGFNMISIEQEKELGNKFAVEIEKQQQPVNDPEVQRYVDKVGKRLLSGARAVEFDYVFKVVKDDSVNAFAIPGGRVYVHTGLLKAADNETELAGVLAHEINHAVARHGTRQMTQEYGYSLVLSLVLGDNPNMLAQLAGQLFGKAGMMSYSREYENQADFLGVETMYKAGYNPNGLTSFFQKLNAMDGGTQSNVARFFSTHPLTSERIQRVQAEIAKLPPQRYLTDETEFKKIKGRLKLEHHHHHH”: the “soluble on expression in E. coli” value is recorded as “soluble”.

As to “MGSDKIHHHHHHMTPIPKTSVPKTSVPTTPEPIRTNIPTALGKCLSLCLCLLLPLTQAWAETPANADVTASDNAIIAGHEFSHDSSEFKTPRRYMVSLPEGYHGNTRHYPVLYVVDADFQFQHVSALALHLARMGKIAPMIVVGIANQGQSDYLYTTTWKSDEGEAFGGADTFYRYLAKELIPTIDKQFRTNPHKALAGYSLGGLFTLYAMTQANSPFDAYLAMSPSVWYDKMHYIELLKQRLQKSPIEAPLFLTLANEQEMGVDELVTALKGYDAQKIHWQFKQYPSENHFTTALPALNDGLLFLSPDYGLDGSDMLALGDYRAVLDYFAKRKANWAGFHIEWLQAYQFGKYLFWSKQLDKLDGILAAVKQEFPDSLTIVTVQVAKGFNVKGDGARAKALLDSVAKEGEASPYWHREMSLYYQSQGDEANAQRHQQKALALATQYRLNTWELWELQ”, the “soluble on expression in E. coli” value was “not soluble”.

Regarding “MSLEFGRELPGKRDPQARLKDYKELYLDFSATQIKNQAARCMNCGVPFCHSGCPLGNIIPEFNDAVYRNDWEEAAEILFSTNNFPEFTGRICPAPCEASCVLGINKPPVTIENIEKSIVETAFEKGILKPNPPKKRTGKTVAVVGSGPAGLAAAAQLNSAGHTVTVFERADQVGGLLRYGIPDFKLEKWVIDRRVKLMEEEGVIFKTNTNVGVTVKAKDIVKEFDAVVLTGGSTVGRDLPIPGRQFKGVHFAMEFLSQQNKRVANIKPEIDHTGEAYKNGDLLATAKNVVVIGGGDTGSDCVGTSNRHGAKSVLQFELMPKPPENKNETTPWPNWPMILRTSTSHEEGCDRLWSITTKEFIGDADGNLTGLKIAEMGWVTAPDSKLPKYQELPGTERVIPCELTLLAMGFLHPQHAGMLNELGVEYDERGNIKANGKYQTNVDKVFTAGDMRRGQSLVVWAISEGREAARNVDIFLMGTTSLEAKDHGMLDTVYAEGHHHHHH”, the “soluble on expression in E. coli” value is listed as “soluble”.

With “MAQENSTVKPTQAELTLLNVLWKMGPATVRQVHDVVSTTQKTGYTTVLKILQIMHEKSLVIRDESNRAHVYAAANSQTQTQSSLIKDLISKAFGGSTSKLVMRAIDDSTSEQEINDIRQLLNSLEK”, the “soluble on expression in E. coli” value was “not soluble”.

“MSLTQYWLGLDCGGSWLKAGLYDREGREAGVQRLPLCALSPQPGWAERDMAELWQCCMAVIRALLTHSGVSGEQIVGIGISAQGKGLFLLDKNDKPLGNAILSSDRRAMEIVRRWQEDGIPEKLYPLTRQTLWTGHPVSLLRWLKEHEPERYAQIGCVMMTHDYLRWCLTGVKGCEESNISESNLYNMSLGEYDPCLTDWLGIAEINHALPPVVGSAEICGEITAQTAALTGLKAGTPVVGGLFDVVSTALCAGIEDEFTLNAVMGTWAVTSGITRGLRDGEAHPYVYGRYVNDGEFIVHEASPTSSGNLEWFTAQWGEISFDEINQAVASLPKAGGDLFFLPFLYGSNAGLEMTSGFYGMQAIHTRAHLLQAIYEGVVFSHMTHLNRMRERFTDVHTLRVTGGPAHSDVWMQMLADVSGLRIELPQVEETGCFGAALAARVGTGVYHNFSEAQRDLRHPVRTLLPDMTAHQLYQKKYQRYQHLIAALQGFHARIKEHTLEGHHHHHH”: the “soluble on expression in E. coli” value is “soluble”.

Regarding “MGSDKIHHHHHHMVLSGSPYERGFQHGNRFADLISQALDRRLASLSAADLSQAHKRASDVLATIDVMAPHVGTELRGIADGAGREVSGIVLRSSFELLASPTATGCSGLAVQTRDGALIAQNWDGPLGSDVEQALFIHVGTSGFEFATVAAVGALGWVGFNRAGFGFVNNDLVLKSRCDGIPSQIVRRVFLGCPDVNAAVEAAKSLPHMAGRAYLFGDASNKIASIEVSARHGVSVCRSGSFLAHTNHALNDQIRADEDAELLARQYPSSQKRLEVLKMREAGCADACEVMDILRDRTNAPDSVCKQTSLREPTQTAFSVVMQCRNRTLFLVRGMPSATEYQRISL”, the “soluble on expression in E. coli” value was “not soluble”.

“MSLQEDPVVMRINGKDIPRSEFEYSYRRHADGNGMKLSPKEYAEFFIQSKLKVEAARAAGLDTTSAFRKQQEAYRTNLLRSYLLDDQEMDGNARILYQKMKENVRGGQVQIQQIYKYLPQTITSRHLQEEQARMDSIYQVIQNQPGVDFARLVDRFSDDKRCRWIESLQTTSEFEEAAFSLAKGEISKPFFTPEGIHILKVIDRKEVPAYEVVSDSLLNRLRRQPLDKGTEAIVEQLKKEYQYIPNMESLEEVLQKGGTERTLFTIDGQAYTGEMFKRFAASHPQAVKRQLNGFIAKSLLDYESQHMERKHPELRYTLQEYAEKCLAEEIVHQKVDLPAVNDRVGLATYFKFHSSDYRWEHPRYKGVVLHCADKKTAKQAKKLLKKVPENEWEDMLRKTFNTSGAEIIKIEQGVFADGDNKYIDKLVFKKGAFDPVVSYPFTIAVGKKQKGPEDYREVIDQVRKDYRNYLNAYWERELRESGKVEINQEVLKTVNNEGHHHHHH”: the “soluble on expression in E. coli” value is given as “soluble”.

For “MGSSHHHHHHSSGLVPRGSHMASMAGLGHPAAFGRATHAVVRALPESLGQHALRSAKGEEVDVARAERQHQLYVGVLGSKLGLQVVELPADESLPDCVFVEDVAVVCEETALITRPGAPSRRKEVDMMKEALEKLQLNIVEMKDENATLDGGDVLFTGREFFVGLSKRTNQRGAEILADTFKDYAVSTVPVADGLHLKSFCSMAGPNLIAIGSSESAQKALKIMQQMSDHRYDKLTVPDDIAANCIYLNIPNKGHVLLHRTPEEYPESAKVYEKLKDHMLIPVSMSELEKVDGLLTCCSVLINKKVDS”, the “soluble on expression in E. coli” value is on record as “soluble”.

For “VVIFFGVILGILIVEYGQKRSFSSWLVEKMFAYRKYKLSKKVDNYKGVETQRNRNIPYHLDNPEEIVGFSTQEYDVNGMQVFIINDQKQSHQPVIYYLYGSVYLRRPEKLHFKTVKHLIQLTNAKVVFPNFPKVPYATYQDVYPKLVEAYQQFCLSNGPSQVSVIGDSSGGGMALAFAKYIRDTKTAPQPKQLILISPWLDVSFKNQAYKDFEAEEAYLDARRLRDIGELWAGGQGNMQLPYVSPLYGDYEDLPEITTFVGTKEIFYPDIMSLHDQLTRQRIANQLIIAEKMIHAYVIFPIREAKQARKQIAELVLKTVEHT”, the “soluble on expression in E. coli” value was “not soluble”.

“MGSDKIHHHHHHMVTSPSLKGLQAFEAAARAGSFAAAAEELSVSAAAVSQLIRTVEEQMGRKLFHRVNRKVVLTEAGVEILPRLTMAFQEIGSVSRELDGDAFRPRLVVSVPPSMAMGWLSQRLAGFVASHGAADISLRGDDDPVPFDRELIDIRLSYGPHYREHPTEDIARDAVYPVCAPGLASAIKADGGPLAGLPLIHTDWGPTGASFPSWRNWFEAEGVQPGRAAQRGLSANSSRAALDLAISGLGVTLAQGVYCAEALEDGRLVRPAARVIALRQPYCLTIPERSARRDVVAAFRDWLIEECRRAVGSPALR”: the “soluble on expression in E. coli” value is “not soluble”.
